Results reported in patent US20050048477A1 (published 2005).

Molecular target: T1, Gal80-Fpr1p fusion (yeast, UniProt P04387 1-435; P20081 1-114)
T1 construct: Encoded on a pRS416 backbone; also called pGP82; not shown: 2 HA tags derived from oligonucleotides GANG33/34 (DNA only)
T1 sequence (looked up): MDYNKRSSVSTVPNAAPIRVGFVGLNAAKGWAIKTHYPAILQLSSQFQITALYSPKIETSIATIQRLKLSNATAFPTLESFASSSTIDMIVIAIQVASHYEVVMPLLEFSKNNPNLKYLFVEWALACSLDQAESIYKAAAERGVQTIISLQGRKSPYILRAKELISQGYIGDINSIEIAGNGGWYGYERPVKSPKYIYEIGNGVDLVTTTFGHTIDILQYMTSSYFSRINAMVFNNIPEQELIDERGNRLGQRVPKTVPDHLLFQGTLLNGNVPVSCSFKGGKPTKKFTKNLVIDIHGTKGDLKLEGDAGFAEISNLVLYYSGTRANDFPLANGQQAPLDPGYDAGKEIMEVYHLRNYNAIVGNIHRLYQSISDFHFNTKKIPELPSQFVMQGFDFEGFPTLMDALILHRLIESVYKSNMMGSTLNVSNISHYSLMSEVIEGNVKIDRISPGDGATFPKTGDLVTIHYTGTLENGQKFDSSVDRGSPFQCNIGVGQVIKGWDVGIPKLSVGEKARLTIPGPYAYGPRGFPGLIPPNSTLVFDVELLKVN
Test: 80-Trap assay in yeast, HIS3 reporter growth without galactose
Procedure: FIG. 4A illustrates FK506-dependent HIS3 reporter expression. Gal80-Fpr1 designates the Gal80-Fpr1p fusion. Myr-Cna1 designates the plasma membrane targeted Cna1p. Myr-Cmd1 is a plasma membrane targeted calmodulin and is used as a control. The nutrient agar plates used here lacked histidine, tryptophan and uracil and contained 0.5% galactose/3% glycerol/2% lactic acid as carbon source. FK506 was used at 0.25 μg/mL where indicated. Identical results were obtained using nutrient agar lacking galactose (data not shown). […] The nutrient agar plate lacked histidine, tryptophan and uracil and contained 3% glycerol/2% lactic acid as carbon source. Galactose was used at 0.5% where indicated. The lack of tryptophan and uracil are required for selection and maintenance in yeast of the two plasmids Gal80-Fpr1p and Myr-Cna1p, and the lack of histidine is to provide a selective assay for the protein-protein interaction that activates the HIS3 reporter gene carried on a yeast chromosome.
FK506 was used to trigger the interaction between a Gal80-Fpr1p fusion and plasma membrane-localized Myr-Can1p. […] Induction of the galactose-inducible HIS3 reporter gene was assayed. […] It has been reported that Fpr1p also interacts with Hom3p, the aspartokinase, in the absence of FK506 in a yeast two-hybrid assay (Alarcon and Heitman, 1997, Mol. Cell Bio., 17: 5968-5975).

B1: Myr-Hom3p (other, yeast)
chain: MGCTVSTQTIGDESDPMPMDFQPTSSHSNWVVQKFGGTSVGKFPVQIVDDIVKHYSKPDGPNNNVAVVCSARSSYTKAEGTTSRLLKCCDLASQESEFQDIIEVIRQDHIDNADRFILNPALQAKLVDDTNKELELVKKYLNASKVLGEVSSRTVDLVMSCGEKLSCLFMTALCNDRGCKAKYVDLSHIVPSDFSASALDNSFYTFLVQALKEKLAPFVSAKERIVPVFTGFFGLVPTGLLNGVGRGYTDLCAALIAVAVNADELQVWKEVDGIFTADPRKVPEARLLDSVTPEEASELTYYGSEVIHPFTMEQVIRAKIPIRIKNVQNPLGNGTIIYPDNVAKKGESTPPHPPENLSSSFYEKRKRGATAITTKNDIFVINIHSNKKTLSHGFLAQIFTILDKYKLVVDLISTSEVHVSMALPIPDADSLKSLRQAEEKLRILGSVDITKKLSIVSLVGKHMKQYIGIAGTMFTTLAEEGINIEMISQGANEINISCVINESDSIKALQCIHAKLLSERTNTSNQFEHAIDERLEQLKRLGI
modifications: N-myristoylation at the N-terminal signal
notes: Encoded on a pRS424 backbone under the ADH2 promoter; also called pGP130; not shown: CFP amplified from pDH3
binding result: binds
